Here are results for two molecules from publication PMC7042382 (2020).

This assay addresses HIV-1 Gag protein peptide on HLA-B*57:01 (human). In words: multimer staining.

B1: A16.1 (TCR)
alpha TRAV4 TRAJ9 CDR3: CLVGEVRGGFKTIF
beta TRBV4-3 TRBJ2-5 CDR3: CASSQARGGAETQYF
In the case of B1, the binding result is reported as “recognises”.

B2: A16.2 (TCR)
alpha TRAV4 TRAJ20 CDR3: CLVGGEDYKLSF
beta TRBV4-3 TRBJ2-5 CDR3: CASSQARGGAETQYF
For the molecule B2, the binding result is on record as “recognises”.
